Series [1] has as its system A549 cell-line derived mouse model of lung adenocarcinoma. Description: A549 cell-line derived xenograft model. The format is in vivo. Particulars: A549, NCr nude mice, IP biweekly 500 μg, 10 doses.
Another series has as its target human HER3 (Homo sapiens, UniProt P21860). Put plainly: Global affinity study, Bio-Layer Interferometry (Octet QK384). The format is binding. Particulars: IgG1 format, 25° C.; read-out: KD. The method, then: The anti-HER3 antibody clones in IgG1 format were analysed for binding affinity to human HER3. Bio-Layer Interferometry (BLI) experiments were performed using the Octet QK384 system (ForteBio). anti-Human IgG Capture (AHC) Octet sensor tips (Pall ForteBio, USA) were used to anti-HER3 antibodies (25 nM). All measurements were performed at 25° C. with agitation at 1000 rpm. Kinetic measurements for antigen binding were performed by loading His-tagged human HER3 antigens at different concentrations for 120 s, followed by a 120 s dissociation time by transferring the biosensors into assay buffer containing wells. Sensograms were referenced for buffer effects and then fitted using the Octet QK384 user software (Pall ForteBio, USA). Kinetic responses were subjected to a global fitting using a one site binding model to obtain values for association (Kon), dissociation (Koff) rate constants and the equilibrium dissociation constant (KD). Only curves that could be reliably fitted with the software (R^2>0.90) were included in the analysis.
Bio-Layer Interferometry (BLI) experiments were performed using the Octet QK384 system (ForteBio). […] Binding was detected using titrated HIS-tagged human HER3 in steps of baseline (60 s), loading (120 s), baseline2 (60 s), association (120 s), dissociation (FcA 120 s, FcB 600 s) and regeneration (15 s). Sensorgrams were analysed as described in Example 3.3. […]
On the technique in general: In BLI a coated tip is dipped into the sample, and binding shifts an interference pattern.

Series [2] is classed as physicochemical. The conditions noted are these: 0.2 mg/mL in PBS, three samples. The method, then: 3.4 Analysis of thermostability by Differential Scanning Fluorimetry Briefly, triplicate reaction mixes of antibodies at 0.2 mg/mL and SYPRO Orange dye (ThermoFisher) were prepared in 25 μL of PBS, transferred to wells of MicroAmp Optical 96-Well Reaction Plates (ThermoFisher), and sealed with MicroAmp Optical Adhesive Film (ThermoFisher). Melting curves were run in a 7500 fast Real-Time PCR system (Applied Biosystems) selecting TAMRA as reporter and ROX as passive reference. The thermal profile included an initial step of 2 min at 25° C. and a final step of 2 min at 99° C., with a ramp rate of 1.2%. The first derivative of the raw data was plotted as a function of temperature to obtain the derivative melting curves. Melting temperatures (Tm) of the antibodies were extracted from the peaks of the derivative curves.
The thermostability of the variant was also analysed by Differential Scanning Fluorimetry analysis as described in Example 3.4.

In series [3] the test system is HCC-95 cell-line derived mouse model of squamous cell lung carcinoma. Description: HCC-95 cell-line derived xenograft model. The format is in vivo. Particulars: HCC-95, IP biweekly 500 μg, 4 doses. How it is done: (§1) Tumor volumes were measured 3 times a week using a digital caliper and calculated using the formula [L ×W2/2]. Study End point was considered to have been reaches once the tumors of the control arm measured >1.5 cm in length.
The model was established by subcutaneous injection of 1×10^6 HCC-95 cells into the right flanks of female NCr nude mice (n=6 mice per treatment group).
10D1 was administered IP, biweekly at 500 μg per dose (for a total of 4 doses); a control treatment group received an equal volume of PBS.

Series [4] deals with ACHN cell-line derived mouse model of renal cell carcinoma. Description: ACHN cell-line derived xenograft model. The format is in vivo. Particulars: IP biweekly 500 μg, 7 doses. The method, then:
as §1
The model was established by subcutaneous injection of 1×10^6 ACHN cells into the right flanks of female NCr nude mice (n=6 mice per treatment group).
10D1 was administered IP, biweekly at 500 μg per dose (for a total of 7 doses); a control treatment group received an equal volume of PBS.

In the next series the target is T1, rat HER3 (Rattus norvegicus, UniProt Q62799).
T1 construct: purchased Sino Biological Inc., China
T1 sequence (Q62799 20-1339): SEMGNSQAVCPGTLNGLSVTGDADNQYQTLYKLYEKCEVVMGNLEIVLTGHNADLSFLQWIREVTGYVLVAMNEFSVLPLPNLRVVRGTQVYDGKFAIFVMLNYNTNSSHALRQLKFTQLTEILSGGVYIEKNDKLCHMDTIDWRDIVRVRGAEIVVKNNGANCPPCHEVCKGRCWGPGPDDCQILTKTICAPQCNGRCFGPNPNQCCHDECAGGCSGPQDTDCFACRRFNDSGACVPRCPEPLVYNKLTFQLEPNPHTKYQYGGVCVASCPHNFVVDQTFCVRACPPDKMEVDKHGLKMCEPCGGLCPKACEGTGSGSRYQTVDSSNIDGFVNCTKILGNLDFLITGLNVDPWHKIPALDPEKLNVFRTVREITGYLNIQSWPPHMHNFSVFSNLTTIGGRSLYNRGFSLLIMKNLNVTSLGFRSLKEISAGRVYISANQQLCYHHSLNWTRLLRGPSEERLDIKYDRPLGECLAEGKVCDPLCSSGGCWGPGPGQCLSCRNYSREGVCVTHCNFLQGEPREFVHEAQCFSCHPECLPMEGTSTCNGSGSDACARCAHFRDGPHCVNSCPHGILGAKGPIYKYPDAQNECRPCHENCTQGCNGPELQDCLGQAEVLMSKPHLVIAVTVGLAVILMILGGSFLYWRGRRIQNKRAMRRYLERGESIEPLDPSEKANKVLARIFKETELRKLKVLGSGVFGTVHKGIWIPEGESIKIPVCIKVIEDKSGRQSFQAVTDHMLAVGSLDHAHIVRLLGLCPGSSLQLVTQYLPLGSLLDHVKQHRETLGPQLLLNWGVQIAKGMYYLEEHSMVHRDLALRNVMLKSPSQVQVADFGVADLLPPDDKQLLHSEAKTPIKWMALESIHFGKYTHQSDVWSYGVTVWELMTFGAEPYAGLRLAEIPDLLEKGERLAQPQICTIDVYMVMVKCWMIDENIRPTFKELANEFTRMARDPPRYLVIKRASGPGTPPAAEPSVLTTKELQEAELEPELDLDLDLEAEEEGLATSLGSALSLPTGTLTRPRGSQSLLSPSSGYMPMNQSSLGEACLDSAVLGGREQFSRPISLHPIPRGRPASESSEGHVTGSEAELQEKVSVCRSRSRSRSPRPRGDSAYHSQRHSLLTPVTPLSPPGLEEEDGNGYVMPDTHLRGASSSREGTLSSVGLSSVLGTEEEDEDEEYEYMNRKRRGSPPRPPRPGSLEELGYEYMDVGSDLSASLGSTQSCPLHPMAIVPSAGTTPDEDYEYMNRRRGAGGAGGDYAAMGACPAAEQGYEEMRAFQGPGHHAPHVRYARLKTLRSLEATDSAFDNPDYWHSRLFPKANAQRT
Description: ELISA cross-reactivity, rat HER3. The format is binding. The method, then: (§2) ELISAs were used to determine the binding specificity of the antibodies. The antibodies were analysed for binding to human HER3 polypeptide, as well as respective mouse, rat and monkey homologues of HER3 (Sino Biological Inc., China). The antibodies were also analysed for their ability to bind to human EGFR and human HER2 (Sino Biological Inc., China).
ELISAs were carried out according to standard protocols. Briefly, 96-well plates (Nunc, Denmark) were coated with 0.1 μg/ml of target polypeptide in phosphate-buffered saline (PBS) for 16 h at 4° C. After blocking for 1 h with 1% BSA in Tris buffer saline (TBS) at room temperature, the anti-HER3 antibody was serially diluted with the highest concentration being 10 μg/ml, and added to the plate. Post 1 h incubation at room temperature, plates were washed three times with TBS containing 0.05% Tween 20 (TBS-T) and were then incubated with a HRP-conjugated anti-His antibody (Life Technologies, Inc., USA) for 1 h at room temperature. After washing, plates were developed with colorimetric detection substrate 3,3′,5,5′-tetramethylbenzidine (Turbo-TMB; Pierce, USA) for 10 min. The reaction was stopped with 2M H2SO4, and OD was measured at 450 nm. […]

Another series addresses T2, human HER2 (Homo sapiens, UniProt P04626).
T2 construct: purchased Sino Biological Inc., China
Put plainly: ELISA specificity, human HER2. The format is binding. Particulars: antibody up to 10 μg/ml. How it is done:
as §2
ELISAs were carried out according to standard protocols. Briefly, 96-well plates (Nunc, Denmark) were coated with 0.1 μg/ml of target polypeptide in phosphate-buffered saline (PBS) for 16 h at 4° C. After blocking for 1 h with 1% BSA in Tris buffer saline (TBS) at room temperature, the anti-HER3 antibody was serially diluted with the highest concentration being 10 μg/ml, and added to the plate. Post 1 h incubation at room temperature, plates were washed three times with TBS containing 0.05% Tween 20 (TBS-T) and were then incubated with a HRP-conjugated anti-His antibody (Life Technologies, Inc., USA) for 1 h at room temperature. […] The reaction was stopped with 2M H2SO4, and OD was measured at 450 nm.
The antibodies were analysed for their ability to bind to human HER3 polypeptide as well as human HER1 (EGFR) and human HER2 (Sino Biological Inc., China). […]
ELISAs were carried out according to standard protocols. […] The reaction was stopped with 2M H2SO4, and OD was measured at 450 nm.
On the technique in general: An ELISA detects its analyte on a solid surface through an enzyme-linked reagent.

Results on one molecule are retold here after patent US20250122303A1, “TREATMENT AND PREVENTION OF CANCER USING HER3 ANTIGEN-BINDING MOLECULES” (Hummingbird Bioscience Pte. Ltd., priority 2021, published 2025).

B1: 10D1: anti-HER3 antibody clone, VH SEQ ID NO:24, VL SEQ ID NO:74; [1] of Example 2.2 (antibody, V domains shown)
VH: DVQLQESGPDLVKPSQSLSLTCTVTGYSITSGYSWHWIRQFPGNKLEWMGSIHYSGGTNYNPSLKSRISITRDTSKNQFFLQLNSVTTEDTATYFCARMTTAPRYPFDYWGQGTTLTVSS
VL: DIVMTQSQKFMSTSVGDRVSVTCKASQIVGSNVAWYQQKPGQSPKPLIYSASYRYSGVPDRFTASGSGTDFTLTITNVQSEDLAEYFCQQYSSHPLTFGAGTKLELK
As to B1, the “inhibition of tumor growth” value is recorded as roughly 91% in series [1], roughly 90% in series [3] and roughly 61% in series [4]. The Kd with human HER3 was 9.58 nM. The Tm in series [2] is 70.3 °C. For the same molecule, in the series with rat HER3, the “binding / cross-reactivity with rat HER3” value is given as “substantial cross-reactivity”. Also, the “binding to human HER2” value in the series with human HER2 was “not to bind”.

The Kd is a measure of binding affinity in units of concentration.
